Assay results from US20040110711A1.

Biological target: mouse full-length TrkB (TrkB.FL) (mouse)
Test: cell-based or functional assay

## BDNF (brain derived neurotrophic factor), supplied by Regeneron Pharmaceuticals (from UniProt P23560 129-247) (ligand)
  TrkB phosphorylation in Ts16 neurons against euploid neurons: 33 % less
  neuron survival 36 hours after B27 withdrawal: 65%
